Data published in US7666420.

How the values were obtained:
CD14 (human) = CD14 (human) (UniProt P08571); test: cell-based or functional assay
[1] = biological target: human TLR4 (Toll-like receptor 4) (human) (UniProt O00206); test: cell-based or functional assay
Sequence of UniProt O00206 (O00206 24-839): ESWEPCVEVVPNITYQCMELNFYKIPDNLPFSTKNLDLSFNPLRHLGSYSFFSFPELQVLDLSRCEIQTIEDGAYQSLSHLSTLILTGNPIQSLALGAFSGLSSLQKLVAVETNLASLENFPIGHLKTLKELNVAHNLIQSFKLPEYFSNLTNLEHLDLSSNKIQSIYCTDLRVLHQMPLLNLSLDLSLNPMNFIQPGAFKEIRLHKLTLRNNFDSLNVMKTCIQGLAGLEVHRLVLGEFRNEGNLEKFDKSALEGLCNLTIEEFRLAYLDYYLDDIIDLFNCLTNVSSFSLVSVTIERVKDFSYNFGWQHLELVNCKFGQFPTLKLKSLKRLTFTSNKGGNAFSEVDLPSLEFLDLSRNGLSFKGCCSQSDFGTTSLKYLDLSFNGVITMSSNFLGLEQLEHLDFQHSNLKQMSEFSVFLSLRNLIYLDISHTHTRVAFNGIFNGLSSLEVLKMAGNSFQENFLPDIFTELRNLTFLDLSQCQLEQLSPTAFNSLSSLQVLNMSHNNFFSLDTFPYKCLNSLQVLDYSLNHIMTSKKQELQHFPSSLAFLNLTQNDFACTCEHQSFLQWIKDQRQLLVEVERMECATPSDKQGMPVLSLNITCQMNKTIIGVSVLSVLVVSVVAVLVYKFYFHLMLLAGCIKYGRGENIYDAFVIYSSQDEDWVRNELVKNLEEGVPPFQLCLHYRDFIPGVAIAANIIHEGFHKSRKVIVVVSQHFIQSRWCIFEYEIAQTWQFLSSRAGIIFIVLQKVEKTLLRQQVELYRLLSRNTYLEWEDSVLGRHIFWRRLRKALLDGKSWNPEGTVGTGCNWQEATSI

Sequence of UniProt P08571 (P08571 20-345): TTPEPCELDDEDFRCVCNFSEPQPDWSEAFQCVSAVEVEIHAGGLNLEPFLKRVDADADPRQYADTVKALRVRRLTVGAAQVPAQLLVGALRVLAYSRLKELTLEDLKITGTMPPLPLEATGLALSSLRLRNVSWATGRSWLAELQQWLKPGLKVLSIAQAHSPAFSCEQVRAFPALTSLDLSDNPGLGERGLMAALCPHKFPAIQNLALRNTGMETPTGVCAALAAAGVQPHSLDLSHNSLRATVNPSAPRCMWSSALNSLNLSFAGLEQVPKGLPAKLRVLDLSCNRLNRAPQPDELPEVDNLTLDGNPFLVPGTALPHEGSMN

Substance	inhibition of TNF-alpha secretion by human PBMCs stimulated with Env-SU, cells preincubated with anti-CD14 antibody (CD14 (human)) [%]	inhibition of TNF-alpha secretion by human PBMCs stimulated with Env-SU, cells preincubated with anti-TLR4 antibody [1] [%]
anti-CD14 neutralizing antibody (rhCD14, ref.: AB383, R&D Systems-UK)	83	
anti-human TLR4 monoclonal antibody HTA125 (eBioscience)		37
